Measured values from publication PMC12861225.

Assay: pNPP activity; mutant:WT plasmid 1:1 (heterodimers not confirmed)
Conditions: glycan lost; control: wild type plasmid only

Protein	enzymatic_activity, percent_of_wt
Tissue-nonspecific alkaline phosphatase (TNALP): heterodimeric N140Q (protein) parent chain: MISPFLVLAIGTCLTNSLVPEKEKDPKYWRDQAQETLKYALELQKLNTNVAKNVIMFLGDGMGVSTVTAARILKGQLHHNPGEETRLEMDKFPFVALSKTYNTNAQVPDSAGTATAYLCGVKANEGTVGVSAATERSRCNTTQGNEVTSILRWAKDAGKSVGIVTTTRVNHATPSAAYAHSADRDWYSDNEMPPEALSQGCKDIAYQLMHNIRDIDVIMGGGRKYMYPKNKTDVEYESDEKARGTRLDGLDLVDTWKSFKPRYKHSHFIWNRTELLTLDPHNVDYLLGLFEPGDMQYELNRNNVTDPSLSEMVVVAIQILRKNPKGFFLLVEGGRIDHGHHEGKAKQALHEAVEMDRAIGQAGSLTSSEDTLTVVTADHSHVFTFGGYTPRGNSIFGLAPMLSDTDKKPFTAILYGNGPGYKVVGGERENVSMVDYAHNNYQAQSAVPLRHETHGGEDVAVFSKGPMAHLLHGVHEQNYVPHVMAYAACIGANLGHCAPASSAGSLAAGPLLLALALYPLSVLF	decreases
Tissue-nonspecific alkaline phosphatase (TNALP): heterodimeric N230Q (protein) parent chain: MISPFLVLAIGTCLTNSLVPEKEKDPKYWRDQAQETLKYALELQKLNTNVAKNVIMFLGDGMGVSTVTAARILKGQLHHNPGEETRLEMDKFPFVALSKTYNTNAQVPDSAGTATAYLCGVKANEGTVGVSAATERSRCNTTQGNEVTSILRWAKDAGKSVGIVTTTRVNHATPSAAYAHSADRDWYSDNEMPPEALSQGCKDIAYQLMHNIRDIDVIMGGGRKYMYPKNKTDVEYESDEKARGTRLDGLDLVDTWKSFKPRYKHSHFIWNRTELLTLDPHNVDYLLGLFEPGDMQYELNRNNVTDPSLSEMVVVAIQILRKNPKGFFLLVEGGRIDHGHHEGKAKQALHEAVEMDRAIGQAGSLTSSEDTLTVVTADHSHVFTFGGYTPRGNSIFGLAPMLSDTDKKPFTAILYGNGPGYKVVGGERENVSMVDYAHNNYQAQSAVPLRHETHGGEDVAVFSKGPMAHLLHGVHEQNYVPHVMAYAACIGANLGHCAPASSAGSLAAGPLLLALALYPLSVLF	decreases
Tissue-nonspecific alkaline phosphatase (TNALP): heterodimeric N271Q (protein) parent chain: MISPFLVLAIGTCLTNSLVPEKEKDPKYWRDQAQETLKYALELQKLNTNVAKNVIMFLGDGMGVSTVTAARILKGQLHHNPGEETRLEMDKFPFVALSKTYNTNAQVPDSAGTATAYLCGVKANEGTVGVSAATERSRCNTTQGNEVTSILRWAKDAGKSVGIVTTTRVNHATPSAAYAHSADRDWYSDNEMPPEALSQGCKDIAYQLMHNIRDIDVIMGGGRKYMYPKNKTDVEYESDEKARGTRLDGLDLVDTWKSFKPRYKHSHFIWNRTELLTLDPHNVDYLLGLFEPGDMQYELNRNNVTDPSLSEMVVVAIQILRKNPKGFFLLVEGGRIDHGHHEGKAKQALHEAVEMDRAIGQAGSLTSSEDTLTVVTADHSHVFTFGGYTPRGNSIFGLAPMLSDTDKKPFTAILYGNGPGYKVVGGERENVSMVDYAHNNYQAQSAVPLRHETHGGEDVAVFSKGPMAHLLHGVHEQNYVPHVMAYAACIGANLGHCAPASSAGSLAAGPLLLALALYPLSVLF	decreases
Tissue-nonspecific alkaline phosphatase (TNALP): heterodimeric N303Q (protein) parent chain: MISPFLVLAIGTCLTNSLVPEKEKDPKYWRDQAQETLKYALELQKLNTNVAKNVIMFLGDGMGVSTVTAARILKGQLHHNPGEETRLEMDKFPFVALSKTYNTNAQVPDSAGTATAYLCGVKANEGTVGVSAATERSRCNTTQGNEVTSILRWAKDAGKSVGIVTTTRVNHATPSAAYAHSADRDWYSDNEMPPEALSQGCKDIAYQLMHNIRDIDVIMGGGRKYMYPKNKTDVEYESDEKARGTRLDGLDLVDTWKSFKPRYKHSHFIWNRTELLTLDPHNVDYLLGLFEPGDMQYELNRNNVTDPSLSEMVVVAIQILRKNPKGFFLLVEGGRIDHGHHEGKAKQALHEAVEMDRAIGQAGSLTSSEDTLTVVTADHSHVFTFGGYTPRGNSIFGLAPMLSDTDKKPFTAILYGNGPGYKVVGGERENVSMVDYAHNNYQAQSAVPLRHETHGGEDVAVFSKGPMAHLLHGVHEQNYVPHVMAYAACIGANLGHCAPASSAGSLAAGPLLLALALYPLSVLF	decreases
Tissue-nonspecific alkaline phosphatase (TNALP): heterodimeric N430D (protein) parent chain: MISPFLVLAIGTCLTNSLVPEKEKDPKYWRDQAQETLKYALELQKLNTNVAKNVIMFLGDGMGVSTVTAARILKGQLHHNPGEETRLEMDKFPFVALSKTYNTNAQVPDSAGTATAYLCGVKANEGTVGVSAATERSRCNTTQGNEVTSILRWAKDAGKSVGIVTTTRVNHATPSAAYAHSADRDWYSDNEMPPEALSQGCKDIAYQLMHNIRDIDVIMGGGRKYMYPKNKTDVEYESDEKARGTRLDGLDLVDTWKSFKPRYKHSHFIWNRTELLTLDPHNVDYLLGLFEPGDMQYELNRNNVTDPSLSEMVVVAIQILRKNPKGFFLLVEGGRIDHGHHEGKAKQALHEAVEMDRAIGQAGSLTSSEDTLTVVTADHSHVFTFGGYTPRGNSIFGLAPMLSDTDKKPFTAILYGNGPGYKVVGGERENVSMVDYAHNNYQAQSAVPLRHETHGGEDVAVFSKGPMAHLLHGVHEQNYVPHVMAYAACIGANLGHCAPASSAGSLAAGPLLLALALYPLSVLF	decreases
Tissue-nonspecific alkaline phosphatase (TNALP): heterodimeric N140Q/N230Q (protein) parent chain: MISPFLVLAIGTCLTNSLVPEKEKDPKYWRDQAQETLKYALELQKLNTNVAKNVIMFLGDGMGVSTVTAARILKGQLHHNPGEETRLEMDKFPFVALSKTYNTNAQVPDSAGTATAYLCGVKANEGTVGVSAATERSRCNTTQGNEVTSILRWAKDAGKSVGIVTTTRVNHATPSAAYAHSADRDWYSDNEMPPEALSQGCKDIAYQLMHNIRDIDVIMGGGRKYMYPKNKTDVEYESDEKARGTRLDGLDLVDTWKSFKPRYKHSHFIWNRTELLTLDPHNVDYLLGLFEPGDMQYELNRNNVTDPSLSEMVVVAIQILRKNPKGFFLLVEGGRIDHGHHEGKAKQALHEAVEMDRAIGQAGSLTSSEDTLTVVTADHSHVFTFGGYTPRGNSIFGLAPMLSDTDKKPFTAILYGNGPGYKVVGGERENVSMVDYAHNNYQAQSAVPLRHETHGGEDVAVFSKGPMAHLLHGVHEQNYVPHVMAYAACIGANLGHCAPASSAGSLAAGPLLLALALYPLSVLF	decreases
Tissue-nonspecific alkaline phosphatase (TNALP): heterodimeric N140Q/N271Q (protein) parent chain: MISPFLVLAIGTCLTNSLVPEKEKDPKYWRDQAQETLKYALELQKLNTNVAKNVIMFLGDGMGVSTVTAARILKGQLHHNPGEETRLEMDKFPFVALSKTYNTNAQVPDSAGTATAYLCGVKANEGTVGVSAATERSRCNTTQGNEVTSILRWAKDAGKSVGIVTTTRVNHATPSAAYAHSADRDWYSDNEMPPEALSQGCKDIAYQLMHNIRDIDVIMGGGRKYMYPKNKTDVEYESDEKARGTRLDGLDLVDTWKSFKPRYKHSHFIWNRTELLTLDPHNVDYLLGLFEPGDMQYELNRNNVTDPSLSEMVVVAIQILRKNPKGFFLLVEGGRIDHGHHEGKAKQALHEAVEMDRAIGQAGSLTSSEDTLTVVTADHSHVFTFGGYTPRGNSIFGLAPMLSDTDKKPFTAILYGNGPGYKVVGGERENVSMVDYAHNNYQAQSAVPLRHETHGGEDVAVFSKGPMAHLLHGVHEQNYVPHVMAYAACIGANLGHCAPASSAGSLAAGPLLLALALYPLSVLF	decreases
Tissue-nonspecific alkaline phosphatase (TNALP): heterodimeric N140Q/N303Q (protein) parent chain: MISPFLVLAIGTCLTNSLVPEKEKDPKYWRDQAQETLKYALELQKLNTNVAKNVIMFLGDGMGVSTVTAARILKGQLHHNPGEETRLEMDKFPFVALSKTYNTNAQVPDSAGTATAYLCGVKANEGTVGVSAATERSRCNTTQGNEVTSILRWAKDAGKSVGIVTTTRVNHATPSAAYAHSADRDWYSDNEMPPEALSQGCKDIAYQLMHNIRDIDVIMGGGRKYMYPKNKTDVEYESDEKARGTRLDGLDLVDTWKSFKPRYKHSHFIWNRTELLTLDPHNVDYLLGLFEPGDMQYELNRNNVTDPSLSEMVVVAIQILRKNPKGFFLLVEGGRIDHGHHEGKAKQALHEAVEMDRAIGQAGSLTSSEDTLTVVTADHSHVFTFGGYTPRGNSIFGLAPMLSDTDKKPFTAILYGNGPGYKVVGGERENVSMVDYAHNNYQAQSAVPLRHETHGGEDVAVFSKGPMAHLLHGVHEQNYVPHVMAYAACIGANLGHCAPASSAGSLAAGPLLLALALYPLSVLF	decreases
Tissue-nonspecific alkaline phosphatase (TNALP): heterodimeric N140Q/N430D (protein) parent chain: MISPFLVLAIGTCLTNSLVPEKEKDPKYWRDQAQETLKYALELQKLNTNVAKNVIMFLGDGMGVSTVTAARILKGQLHHNPGEETRLEMDKFPFVALSKTYNTNAQVPDSAGTATAYLCGVKANEGTVGVSAATERSRCNTTQGNEVTSILRWAKDAGKSVGIVTTTRVNHATPSAAYAHSADRDWYSDNEMPPEALSQGCKDIAYQLMHNIRDIDVIMGGGRKYMYPKNKTDVEYESDEKARGTRLDGLDLVDTWKSFKPRYKHSHFIWNRTELLTLDPHNVDYLLGLFEPGDMQYELNRNNVTDPSLSEMVVVAIQILRKNPKGFFLLVEGGRIDHGHHEGKAKQALHEAVEMDRAIGQAGSLTSSEDTLTVVTADHSHVFTFGGYTPRGNSIFGLAPMLSDTDKKPFTAILYGNGPGYKVVGGERENVSMVDYAHNNYQAQSAVPLRHETHGGEDVAVFSKGPMAHLLHGVHEQNYVPHVMAYAACIGANLGHCAPASSAGSLAAGPLLLALALYPLSVLF	decreases
Tissue-nonspecific alkaline phosphatase (TNALP): heterodimeric N230Q/N271Q (protein) parent chain: MISPFLVLAIGTCLTNSLVPEKEKDPKYWRDQAQETLKYALELQKLNTNVAKNVIMFLGDGMGVSTVTAARILKGQLHHNPGEETRLEMDKFPFVALSKTYNTNAQVPDSAGTATAYLCGVKANEGTVGVSAATERSRCNTTQGNEVTSILRWAKDAGKSVGIVTTTRVNHATPSAAYAHSADRDWYSDNEMPPEALSQGCKDIAYQLMHNIRDIDVIMGGGRKYMYPKNKTDVEYESDEKARGTRLDGLDLVDTWKSFKPRYKHSHFIWNRTELLTLDPHNVDYLLGLFEPGDMQYELNRNNVTDPSLSEMVVVAIQILRKNPKGFFLLVEGGRIDHGHHEGKAKQALHEAVEMDRAIGQAGSLTSSEDTLTVVTADHSHVFTFGGYTPRGNSIFGLAPMLSDTDKKPFTAILYGNGPGYKVVGGERENVSMVDYAHNNYQAQSAVPLRHETHGGEDVAVFSKGPMAHLLHGVHEQNYVPHVMAYAACIGANLGHCAPASSAGSLAAGPLLLALALYPLSVLF	decreases
Tissue-nonspecific alkaline phosphatase (TNALP): heterodimeric N230Q/N303Q (protein) parent chain: MISPFLVLAIGTCLTNSLVPEKEKDPKYWRDQAQETLKYALELQKLNTNVAKNVIMFLGDGMGVSTVTAARILKGQLHHNPGEETRLEMDKFPFVALSKTYNTNAQVPDSAGTATAYLCGVKANEGTVGVSAATERSRCNTTQGNEVTSILRWAKDAGKSVGIVTTTRVNHATPSAAYAHSADRDWYSDNEMPPEALSQGCKDIAYQLMHNIRDIDVIMGGGRKYMYPKNKTDVEYESDEKARGTRLDGLDLVDTWKSFKPRYKHSHFIWNRTELLTLDPHNVDYLLGLFEPGDMQYELNRNNVTDPSLSEMVVVAIQILRKNPKGFFLLVEGGRIDHGHHEGKAKQALHEAVEMDRAIGQAGSLTSSEDTLTVVTADHSHVFTFGGYTPRGNSIFGLAPMLSDTDKKPFTAILYGNGPGYKVVGGERENVSMVDYAHNNYQAQSAVPLRHETHGGEDVAVFSKGPMAHLLHGVHEQNYVPHVMAYAACIGANLGHCAPASSAGSLAAGPLLLALALYPLSVLF	decreases
